Experimental data taken from US12642846B2.

Target: ZIKV sE-WT protein (Zika virus)
Test: SPR (BIOCORE8000), sE amine-coupled on CM5 chip, antibody as mobile phase

Substance: 2A10G6 antibody
- Kd: 9.13 nM
